Measured values taken from the supplement of paper PMC10567573.

B1: EFHC1 (parent)
chain: NIYYYLEDDSMSVIEPVVENSGIL

Variants of: B1
Assay: protein stability index of a GFP-peptide fusion (GPS, HEK-293T) (PSI 1-6); higher = more stable
Settings: c terminus: a fixed tail appended
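Also: lentivirally expressed fusions sorted by FACS into six bins by GFP to DsRed ratio, PSI derived from sequencing read proportions per bin multiplied by bin number.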

Protein stability index, by site and new letter:
V17: E 3.08; L 1.74; H 2.15; C 1.85; D 2.6; P 2.85; Y 1.72; A 2.1; G 1.95; R 1.98; K 2.31; S 1.88; N 1.76; F 2.88; Q 2.41; I 1.62; T 2.32; W 1.94; M 2.07
N20: R 1.33; P 2.95; T 1.71; D 1.7; L 3.52; G 2.77; A 1.69; H 1.79; E 2.46; W 2.37; K 2.06; C 1.93; F 1.48; S 2.13; Q 1.67; V 2.71
S21: Q 2.6; G 2.23; V 1.6; Y 1.39; K 2.12; T 1.82; N 2.33; R 1.74; D 2.4; L 2.03; M 1.78; A 1.76; P 2.4; E 2.31; C 2.57; H 2.09; F 1.45; I 1.48
E15: K 2.34; H 1.75; A 2.22; G 1.6; W 2.39; D 1.96; C 3.27; F 2.48; N 2.79; Y 1.02; I 3.11; M 2.85; P 2.38; S 1.7; L 2.31; Q 1.61; T 1.42; R 1.32
P16: N 1.65; Q 2.17; G 1.92; A 2.38; E 2.37; K 2.58; I 2.75; R 2.11; T 2.94; H 2.45; V 2.86; S 1.83; C 2.54; M 2.57; F 2.73; Y 1.42; D 2.2; W 2.61
E7: D 1.89; P 1.92; R 2.52; K 1.91; F 1.13; S 1.46; G 1.65; M 2.09; W 1.41; I 2.12; N 2.72; C 2.43; H 1.3; Y 2.31; L 2.33; T 2.38; A 1.4; Q 1.94
V18: A 2.19; E 2.69; L 2.16; I 2.23; H 2.11; M 1.66; T 2.23; P 2.38; Y 1.67; R 1.92; S 2.67; W 1.13; Q 2.38; N 2.6; C 1.82; F 1.85; D 2.99; G 3.04; K 2.33
S12: G 2.37; E 2.64; Q 1.92; P 2.15; T 1.58; W 2.16; V 1.86; F 2.77; C 1.61; M 1.8; D 3.05; Y 1.2; A 1.98; R 1.73; N 2.08; K 1.85; H 2.53
G22: C 1.62; Q 1.82; H 1.71; L 1.51; A 2.19; D 2.44; N 2.25; K 1.78; M 1.46; S 1.7; P 2.14; E 2.71; T 1.42; I 1.81; R 1.55
L6: R 2.93; K 2.68; I 2.23; Q 2.84; C 2.24; Y 2.22; P 4.08; F 1.72; V 2.23; N 3.57; W 1.52; A 3.01; D 3.26; M 2.25; E 2.88; G 3.65; S 2.5; T 2.71; H 3.03
D8: E 1.94; F 2.17; S 2.6; Y 2.03; K 1.6; V 3.11; H 1.89; R 2.35; C 2.56; T 1.83; G 2.47; Q 1.91; M 2.71; W 4.45; P 2.23; A 1.94; N 2.01
E19: Q 2.16; Y 2.53; K 2.23; F 1.89; I 1.77; N 1.69; S 1.35; T 1.66; M 1.86; P 2.34; D 2.01; G 1.74; V 2; L 1.42; R 1.67; A 1.59; C 1.39; H 2.01
V13: Y 1.31; K 2.08; A 1.72; L 2.52; H 2.24; I 2.15; G 2.42; P 2.5; S 2.17; C 1.85; D 2.86; N 2.82; R 1.81; W 2.11; T 2.21; F 2.16; E 3.1; Q 2.35; M 2.23
M11: C 2.19; L 2.07; S 2.46; K 3.24; D 3.39; F 1.7; N 3.06; P 3.39; I 2.51; T 2.38; W 1.76; Q 2.55; H 2.56; Y 2.17; R 2.32; V 2.2; E 2.68; G 2.05; A 2.75
Y5: V 2.39; E 3.62; R 3.35; W 1.75; C 2.45; N 2.78; M 2.36; P 3.83; K 3.41; S 3.23; D 3.64; T 2.79; I 1.92; A 3.1; F 1.94; G 3.27; Q 2.92; L 2.51; H 2.69
Y4: Q 2.39; W 2.99; L 1.42; P 4.01; N 2.35; T 2.91; M 2.18; S 3.48; V 1.24; R 2.51
S10: C 1.71; L 1.14; A 2.02; D 2.36; K 2.18; Q 2.05; I 2.1; Y 1.9; E 2.57; W 2.02; T 1.93; R 3.15; H 2.09; M 2.13; P 2.03; G 2.08; V 1.68; N 3.24; F 2.3
I14: V 2.31; L 1.95; W 1.86; C 2.28; Q 1.85; F 1.98; T 2.1; S 2.43; H 2.45; P 3.08; D 3.11; G 2.51; M 2.09; E 3.1; N 2.62; A 2.42; R 2.78; K 3.07; Y 1.93
D9: I 1.56; T 1.37; W 1.54; P 2.02; C 1.76; L 1.68; K 1.83; A 2.09; R 2.09; G 2.12; N 1.69; S 1.68; E 2.11; H 2.13; Y 4.3; Q 2.88; F 2.08
